Assay results: US20070117180

Tests used:
[1] = tested on: fibronectin
[2] = tested on: plasminogen (Glu-1)
Chain of plasminogen (Glu-1) (chain, as listed by the source): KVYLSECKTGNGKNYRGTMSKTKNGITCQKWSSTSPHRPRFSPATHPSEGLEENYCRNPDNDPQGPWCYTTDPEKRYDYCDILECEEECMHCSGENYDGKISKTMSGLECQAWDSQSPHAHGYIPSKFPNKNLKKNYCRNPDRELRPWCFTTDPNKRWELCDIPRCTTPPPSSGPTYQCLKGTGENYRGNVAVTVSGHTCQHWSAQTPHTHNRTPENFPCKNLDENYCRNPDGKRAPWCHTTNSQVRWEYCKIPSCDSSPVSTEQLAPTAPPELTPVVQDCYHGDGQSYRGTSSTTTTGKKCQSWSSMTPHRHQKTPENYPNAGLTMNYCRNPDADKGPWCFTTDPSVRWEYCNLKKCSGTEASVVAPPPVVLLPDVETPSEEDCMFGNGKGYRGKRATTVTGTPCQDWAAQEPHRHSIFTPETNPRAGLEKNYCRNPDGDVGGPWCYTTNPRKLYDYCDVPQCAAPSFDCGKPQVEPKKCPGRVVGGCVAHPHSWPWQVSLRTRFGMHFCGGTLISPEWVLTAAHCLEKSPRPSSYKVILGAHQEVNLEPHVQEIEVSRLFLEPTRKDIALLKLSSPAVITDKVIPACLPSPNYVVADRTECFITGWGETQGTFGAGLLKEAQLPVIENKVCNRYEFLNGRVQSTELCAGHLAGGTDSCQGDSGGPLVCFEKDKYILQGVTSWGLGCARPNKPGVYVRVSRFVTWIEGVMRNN

Chain of PACE4 (Plasminogen Angiostatin Converting Enzyme of pH 4) (chain, as listed by the source): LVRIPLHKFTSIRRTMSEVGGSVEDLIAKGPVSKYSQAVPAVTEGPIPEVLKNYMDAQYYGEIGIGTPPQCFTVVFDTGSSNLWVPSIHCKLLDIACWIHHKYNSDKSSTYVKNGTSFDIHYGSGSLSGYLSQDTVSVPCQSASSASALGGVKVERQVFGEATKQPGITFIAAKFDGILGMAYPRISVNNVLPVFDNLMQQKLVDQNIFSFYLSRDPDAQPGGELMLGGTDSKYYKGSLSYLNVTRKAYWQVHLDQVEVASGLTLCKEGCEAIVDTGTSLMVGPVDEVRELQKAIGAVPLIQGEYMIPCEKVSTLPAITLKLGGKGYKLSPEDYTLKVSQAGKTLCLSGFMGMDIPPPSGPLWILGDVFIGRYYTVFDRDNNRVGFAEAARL

PACE4 (Plasminogen Angiostatin Converting Enzyme of pH 4)
degradation of fibronectin by the enzyme [1]: Fibronectin was degraded restrictedly with this enzyme | fragmentation of plasminogen (SDS-PAGE) at neutral and acidic pH [2]: the enzyme of the present invention fragments plasminogen only at an acidic range of pH
